# Assay results: patent publication US20220213225A1 (INVENRA, published 2022)
# What was measured:
# [1] = biological target: T1, CTLA4 (antigen immobilised on the biosensor) (human, UniProt P16410 36-161, biotinylated in Examples 30 and 35); assay: Octet biolayer interferometry; antigen immobilised, B-Body as analyte
# T1 construct: also called hCTLA4; biotinylated human CTLA4
# [2] = biological target: T1, CTLA4 (antigen immobilised on the …); assay: BLI steady state analysis, biotinylated CTLA4 on streptavidin sensor, two-fold dilutions of the binding molecule from 2 µM to 31.25 nM; monovalent
# T1 sequence (P16410 36-161 limits assumed): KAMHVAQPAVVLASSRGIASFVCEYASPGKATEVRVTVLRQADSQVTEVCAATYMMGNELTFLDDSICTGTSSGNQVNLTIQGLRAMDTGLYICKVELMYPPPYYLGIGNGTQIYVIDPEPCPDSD
Kd [2] [µM],Binder,binding result [1]
,"bivalent bispecific B-Body “BC1” (PD1 x Antigen A) (bispecific antibody, Chains 1+2 form the Antigen A site, chains 3+4 the PD1 site (nivolumab variable domains)) chain 1: not shown chain 2: EVQLVESGGGLVQPGGSLRLSCAASGFTFSDYDIHWVRQAPGKGLEWVGDITPYDGTTNYADSVKGRFTISADTSKNTAYLQMNSLRAEDTAVYYCARLVGEIATGFDYWGQGTLVTVSSASPREPQVYTDPPSRDELTKNQVSLTCLVKGFYPSDIAVEWESNGQPENNYKTTPPVLDSDGSFFLYSKLTVDKSRWQQGNVFSCSVMHEALHNHYTQKSLSLSGEC chain 3: not shown chain 4: QVQLVESGGGVVQPGRSLRLDCKASGITFSNSGMHWVRQAPGKGLEWVAVIWYDGSKRYYADSVKGRFTISRDNSKNTLFLQMNSLRAEDTAVYYCATNDDYWGQGTLVTVSSASTKGPSVFPLAPSSKSTSGGTAALGCLVKDYFPEPVTVSWNSGALTSGVHTFPAVLQSSGLYSLSSVVTVPSSSLGTQTYICNVNHKPSNTKVDKKVEPPKSC",no binding (tested: not given on the sheet)
0.019,BC1 1×1 B-Body SNIPER 19×8 binding molecule (CTLA4-19 x CD25-8) (bispecific antibody) chain 1: not shown chain 2: EVQLVESGGGLVQPGGSLRLSCAASGFTFSGYWIHWVRQAPGKGLEWVAAITSRDSYTYYADSVKGRFTISADTSKNTAYLQMNSLRAEDTAVYYCARGSYLGSAFDYWGQGTLVTVSSASPREPQVYTDPPSRDELTKNQVSLTCLVKGFYPSDIAVEWESNGQPENNYKTTPPVLDSDGSFFLYSKLTVDKSRWQQGNVFSCSVMHEALHNHYTQKSLSLSGEC chain 3: SDIQMTQSPSSLSASVGDRVTITCRASQSVSSAVAWYQQKPGKAPKLLIYSASSLYSGVPSRFSGSRSGTDFTLTISSLQPEDFATYYCQQYSSQPATFGQGTKVEIKRTVAAPSVFIFPPSDEQLKSGTASVVCLLNNFYPREAKVQWKVDNALQSGNSQESVTEQDSKDSTYSLSSTLTLSKADYEKHKVYACEVTHQGLSSPVTKSFNRGECDKTHTCPPCPAPELLGGPSVFLFPPKPKDTLMISRTPEVTCVVVDVSHEDPEVKFNWYVDGVEVHNAKTKPREEQYNSTYRVVSVLTVLHQDWLNGKEYKCKVSNKALPAPIEKTISKAKGQPREPQVCTLPPSREEMTKNQVSLSCAVKGFYPSDIAVEWESNGQPENNYKTTPPVLDSDGSFFLVSKLTVDKSRWQQGNVFSCSVMHEALHNHYTQKSLSLSPGK chain 4: EVQLVESGGGLVQPGGSLRLSCAASGFTFSSYYIHWVRQAPGKGLEWVAKIQPKGGYTYYADSVKGRFTISADTSKNTAYLQMNSLRAEDTAVYYCARSYYYRPHAFDYWGQGTLVTVSSASTKGPSVFPLAPSSKSTSGGTAALGCLVKDYFPEPVTVSWNSGALTSGVHTFPAVLQSSGLYSLSSVVTVPSSSLGTQTYICNVNHKPSNTKVDKKVEPPKSC,
